“And” between values parts separate entries of the source, which are not always exact repeats. Equal values may be shown once.
Target: EGFR 1045+ add-back mutant (pY-null 9Y- backbone with Y1045 added back) (human) (UniProt P00533)
Experiment: co-IP

Cbl, endogenous in NR6 cells (from UniProt P22682 1-913) (enzyme)
fold reduction of association against EGFR-WT: 4 fold and 5 fold
